According to the Immune Epitope Database (IEDB):

Experiments:
HLA-A*02:01 = assay: IEDB peptide-MHC binding, cellular MHC/competitive/fluorescence; ≥ and ≤ were set here for values at or beyond the usual limits of such assays
HLA-A*02:02 = assay: as above
HLA-A*02:03 = assay: as above
HLA-A*02:06 [1] = assay: as above
HLA-A*68:02 = assay: as above
HLA-A*03:01 = assay: as above; details: source organism: Hepatitis B virus
HLA-A*11:01 = assay: as above; details: source organism: Hepatitis B virus
HLA-A*31:01 = assay: as above; details: source organism: Hepatitis B virus
HLA-A*68:01 = assay: as above; details: source organism: Hepatitis B virus
HLA-A*02:06 [2] = assay: IEDB peptide-MHC binding, purified MHC/competitive/radioactivity; ≥ and ≤ were set here for values at or beyond the usual limits of such assays; details: source organism: Hepatitis B virus
[3] = source organism: Influenza A virus
[4] = source organism: Vaccinia virus WR
[5] = source organism: Hepatitis B virus

Sequence	IC50 (HLA-A*02:01; [4]) [µM]	IC50 (HLA-A*02:02; [4]) [µM]	IC50 (HLA-A*02:03; [4]) [µM]	IC50 (HLA-A*02:06 [1]; [4]) [µM]	IC50 (HLA-A*68:02; [4]) [µM]	also measured
PACVYGPA						IC50 (HLA-A*02:01; [3]): ≥ 70 µM; IC50 (HLA-A*02:02; [3]): 14.2 µM; IC50 (HLA-A*02:03; [3]): ≥ 70 µM; IC50 (HLA-A*02:06 [1]; [3]): ≥ 70 µM; IC50 (HLA-A*68:02; [3]): ≥ 70 µM
NMDKVSAQNI	16	8.02	16.8	≥ 70	37.3	
IILFQNNDI	13.5	11.3	52.3	12.1	23.8	
IIRVTTELNI	7.07	9.96	8.76	13.7	16.4	
TVDHMAII						IC50 (HLA-A*02:01; [3]): ≥ 70 µM; IC50 (HLA-A*02:02; [3]): ≥ 70 µM; IC50 (HLA-A*02:03; [3]): 13 µM; IC50 (HLA-A*02:06 [1]; [3]): 41.8 µM; IC50 (HLA-A*68:02; [3]): 39.7 µM
VTGSYNLVDT	≥ 70	≥ 70	≥ 70	≥ 70	≥ 70	
LAIKNYYRKT	≥ 70	36.8	7.18	≥ 70	39.7	
PLKDVERLQM	45.5	6.16	44	37.4	≥ 70	
PVIVPDIKL	52.8	41.2	32.7	51.4	29.9	
DVEKEKFVAT	30.2	37.5	54.8	69.8	≥ 70	
HQLDPAFRA						IC50 (HLA-A*02:01; [5]): 6.45 µM; IC50 (HLA-A*02:02; [5]): 16 µM; IC50 (HLA-A*02:03; [5]): 55.9 µM; IC50 (HLA-A*03:01): ≥ 70 µM; IC50 (HLA-A*11:01): 14.7 µM; IC50 (HLA-A*31:01): 40.6 µM; IC50 (HLA-A*68:01): ≥ 70 µM; IC50 (HLA-A*68:02; [5]): ≥ 70 µM; IC50 (HLA-A*02:06 [2]): 118 nM
KIQLFSDFTI	≥ 70	≥ 70	≥ 70	≥ 70	≥ 70	
STQQNKLVI	41.1	53	14.4	≥ 70	25.7	
LVSKHWELT	≥ 70	12.2	14.9	≥ 70	≥ 70	
